According to publication PMC3193169 (BMC Biotechnology, 2011):
Where “and” joins values, the source holds several entries; their conditions need not be identical. Identical values can stand only once.

Key:
Settings in all cases: both partners purified
[1] = target: Staphylococcus aureus enterotoxin B (SEB) toxin (Staphylococcus aureus, strain , UniProt P01552); test: SPR
[2] = target: staphylococcal enterotoxin D (SED) (Staphylococcus aureus, strain , UniProt P20723); test: Luminex fluid array direct binding assay
Shiga Toxin 1 (STX-1) = Shiga Toxin 1 (STX-1) (Stx1 (phage H30 of Escherichia coli), …, UniProt P10149;P69178); test: Luminex fluid array direct binding assay
Sequence of Shiga Toxin 1 (STX-1) (P10149 23-315, chain 1 of 2): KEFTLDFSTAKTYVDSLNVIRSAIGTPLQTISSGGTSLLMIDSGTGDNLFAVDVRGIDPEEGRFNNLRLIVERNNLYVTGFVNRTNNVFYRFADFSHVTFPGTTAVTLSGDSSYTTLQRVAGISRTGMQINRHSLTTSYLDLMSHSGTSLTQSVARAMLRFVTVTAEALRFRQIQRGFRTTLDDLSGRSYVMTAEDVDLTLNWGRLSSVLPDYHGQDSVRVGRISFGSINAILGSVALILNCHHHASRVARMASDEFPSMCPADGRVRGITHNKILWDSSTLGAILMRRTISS
Sequence of Shiga Toxin 1 (STX-1) (P69178 21-89, chain 2 of 2): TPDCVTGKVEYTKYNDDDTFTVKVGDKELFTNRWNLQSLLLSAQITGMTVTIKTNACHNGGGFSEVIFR

[3] = target: staphylococcal enterotoxin A (SEA) (Staphylococcus aureus, strain , UniProt P0A0L2); test: Luminex fluid array direct binding assay

B1: anti-SEB single domain antibody (sdAb) A3 (VHH)
VHH: EVQLVESGGGLVQAGDSLRLSCTASGRTFSRAVMGWFRQAPGKEREFVAAISAAPGTAYYAFYADSVRGRFSISADSAKNTVYLQMNSLKPEDTAVYYCAADLKMQVAAYMNQRSVDYWGQGTQVTVSS
- koff [1]: 6e-05 s⁻¹ and 2.2e-05 s⁻¹
- kon [1]: 100000 M⁻¹ s⁻¹ and 290000 M⁻¹ s⁻¹

B2: biotinylated sdAb A3 (VHH)
VHH: EVQLVESGGGLVQAGDSLRLSCTASGRTFSRAVMGWFRQAPGKEREFVAAISAAPGTAYYAFYADSVRGRFSISADSAKNTVYLQMNSLKPEDTAVYYCAADLKMQVAAYMNQRSVDYWGQGTQVTVSS
- binding result [2]: no binding
- binding result (Shiga Toxin 1 (STX-1)): no binding
- binding result [3]: no binding
- Kd [1]: 0.39 nM
- koff [1]: 2.8e-05 s⁻¹
- kon [1]: 72000 M⁻¹ s⁻¹
